Three molecules from article PMC5218414 (PLoS ONE, 2017) can be followed below.

Broadly, the koff is the first-order rate constant of dissociation. As a reminder, the kon is the second-order rate constant of association.

Values joined by “and” are separate entries in the source; they are usually repeats but may differ in a detail not shown here. Equal values may be shown once.

The chains are these.
B1: necitumumab (IMC-11F8) Fab fragment (Fab, V domains shown)
VH: QVQLQESGPGLVKPSQTLSLTCTVSGGSISSGDYYWSWIRQPPGKGLEWIGYIYYSGSTDYNPSLKSRVTMSVDTSKNQFSLKVNSVTAADTAVYYCARVSIFGVGTFDYWGQGTLVTVSS
VL: EIVMTQSPATLSLSPGERATLSCRASQSVSSYLAWYQQKPGQAPRLLIYDASNRATGIPARFSGSGSGTDFTLTISSLEPEDFAVYYCHQYGSTPLTFGGGTKAEIK
notes: Fab heavy chain of necitumumab; light chain of necitumumab; source: Expi293 transient expression, co-transfection of heavy and light chain vectors, purified (IMAC, Ni Sepharose Excel)
B2: duligotuzumab (DL11) Fab fragment (Fab, V domains shown)
VH: EVQLVESGGGLVQPGGSLRLSCAASGFTLSGDWIHWVRQAPGKGLEWLGEISAAGGYTDYADSVKGRFTISADTSKNTAYLQMNSLRAEDTAVYYCARESRVSFEAAMDYWGQGTLVTVSS
VL: DIQMTQSPSSLSASVGDRVTITCRASQDLATDVAWYQQKPGKAPKLLIYSASFLYSGVPSRFSGSGSGTDFTLTISSLQPEDFATYYCQQSEPEPYTFGQGTKVEIK
notes: Fab heavy chain of duligotuzumab; light chain of duligotuzumab; source: Expi293 transient expression, co-transfection of heavy and light chain vectors, purified (IMAC, Ni Sepharose Excel)
B3: matuzumab Fab fragment (Fab, V domains shown)
VH: QVQLVQSGAEVKKPGASVKVSCKASGYTFTSHWMHWVRQAPGQGLEWIGEFNPSNGRTNYNEKFKSKATMTVDTSTNTAYMELSSLRSEDTAVYYCASRDYDYAGRYFDYWGQGTLVTVSS
VL: DIQMTQSPSSLSASVGDRVTITCSASSSVTYMYWYQQKPGKAPKLLIYDTSNLASGVPSRFSGSGSGTDYTFTISSLQPEDIATYYCQQWSSHIFTFGQGTKVEIK
notes: Fab heavy chain of matuzumab; light chain of matuzumab; source: Expi293 transient expression, co-transfection of heavy and light chain vectors, purified (IMAC, Ni Sepharose Excel)

For the assay, the target named is T1, human epidermal growth factor receptor (EGFR) (Homo sapiens, UniProt P00533).
T1 construct: human epidermal growth factor receptor, used as a 'monovalent antigen' in solution
Kind of assay: SPR; ProteOn XPR36 one-shot kinetics; antibodies amine-coupled onto GLC chips, EGFR injected as monovalent analyte for 3 min (5fold and 3fold series, top 56 nM; over matuzumab 3fold series, top 278 nM); 25°C, PBS + 0.01% Tween-20; global Langmuir model with mass transport; apparent. The settings on record: both partners purified.
For B1, the Kd is 1.5 nM and 1.6 nM; the koff is 0.0036 s⁻¹ and 0.0059 s⁻¹; the kon is 3.9e+06 M⁻¹ s⁻¹ and 2.2e+06 M⁻¹ s⁻¹.

Take B2: the Kd was 1.9 nM and 1.7 nM; the koff was 0.0035 s⁻¹ and 0.003 s⁻¹; the kon was 1.9e+06 M⁻¹ s⁻¹ and 1.8e+06 M⁻¹ s⁻¹.

With B3, the Kd is 93.1 nM and 92.6 nM; the koff is 0.034 s⁻¹ and 0.031 s⁻¹; the kon is 360000 M⁻¹ s⁻¹ and 340000 M⁻¹ s⁻¹.
